Experimental data as given in patent publication US5792742.
Blank lines part the entries; values can stand above or below the binder they belong to. Where no end group is shown, it is not given here. [ ]: non-standard residue; d: D form. pGlu = O=C1CC[C@@H](C(=O)O)N1

Key:
[1] = target: fibrin (fibrinogen dried on microtiter wells and converted with thrombin); assay: competitive ELISA on fibrin-coated wells, competitor biotinylated Fn (2.3 nM)
[2] = target: fibrin (fibrinogen dried on microtiter wells and converted with thrombin); assay: competitive ELISA on fibrin-coated plates, competitor Fn (2.3 nM), 5,000 molar excess
[3] = target: fibrin (fibrinogen dried on microtiter wells and converted with thrombin); assay: competitive ELISA on fibrin-coated plates, competitor Fn
[4] = target: fibrin (fibrinogen dried on microtiter wells and converted with thrombin); assay: competitive ELISA against intact Fn on fibrin
[5] = target: fibrin (fibrinogen dried on microtiter wells and converted with thrombin); assay: competitive ELISA on fibrin-coated plates, competitor Fn (2.3 nM)

% inhibition of biotinylated Fn binding [1]: 15%
% inhibition of Fn binding [2]: < 20%
B1: recombinant ^1 F1.^2 F1 module pair of fibronectin (peptide)
chain: QAQQMVQPQSPVAVSQSKPGCYDNGKHYQINQQWERTYLGNALVCTCYGGSRGFNCESKPEAEETCFDKYTGNTYRVGDTYERPKDSMIWDCTCIGAGRGRISCTI
modifications: N-terminal pyroglutamate; the major species lacks the NH2-terminal Gln-Ala dipeptide and its new N-terminal Gln is also pyroglutamate

% inhibition of fibronectin binding [3]: 55%
% inhibition (so in the source) [4]: 45%
Binder: CRDEKTQMIYQQHQSWLRPVLRSNRVEYCWCNSGRAQCH (not fully specified (bridges); cysteine pairing not given here) [t-PA type 1 module]

% inhibition of Fn binding [5]: < 20%
B2: recombinant ^1 F1 module of fibronectin (peptide)
chain: [pGlu]AQQMVQPQSPVAVSQSKPGCYDNGKHYQINQQWERTYLGNALVCTCYGGSRGFNCESKPE
modifications: not fully specified (bridges); also: major species lacks N-terminal Gln-Ala, its new N-terminal Gln also pyroglutamate
